Reference: patent publication EP4745153A1, “GLP-1, GIP AND GCG RECEPTOR […] USE THEREOF” (Jiangsu Hengrui Pharmaceuticals Co., Ltd., priority 2023, dated 2025)
Starred links: 1 amine or outer side, 2 acyl side, 3 side chain; linkers in the order of their positions; H or OH if unused. Non-standard residues stand in square brackets, D forms with d. Groups on a side chain read outwards from the residue. No end group written: not given here. *: point of attachment. C20 diacid = O=C(O)CCCCCCCCCCCCCCCCCCC(=O)*; C17 diacid = O=C(O)CCCCCCCCCCCCCCCC(=O)*; γGlu = O=C(O)[C@H](CCC(=O)[*:2])N[*:1]; αMeY = C[C@](N)(Cc1ccc(O)cc1)C(=O)O; αMeL = CC(C)C[C@](C)(N)C(=O)O; αMeK = C[C@](N)(CCCCN)C(=O)O; Iva = CC[C@](C)(N)C(=O)O; AEEA = NCCOCCOCC(=O)O; Aib = CC(C)(N)C(=O)O

T1: human glucose-dependent insulinotropic polypeptide receptor (human, UniProt P48546 22-466)
T1 sequence (looked up): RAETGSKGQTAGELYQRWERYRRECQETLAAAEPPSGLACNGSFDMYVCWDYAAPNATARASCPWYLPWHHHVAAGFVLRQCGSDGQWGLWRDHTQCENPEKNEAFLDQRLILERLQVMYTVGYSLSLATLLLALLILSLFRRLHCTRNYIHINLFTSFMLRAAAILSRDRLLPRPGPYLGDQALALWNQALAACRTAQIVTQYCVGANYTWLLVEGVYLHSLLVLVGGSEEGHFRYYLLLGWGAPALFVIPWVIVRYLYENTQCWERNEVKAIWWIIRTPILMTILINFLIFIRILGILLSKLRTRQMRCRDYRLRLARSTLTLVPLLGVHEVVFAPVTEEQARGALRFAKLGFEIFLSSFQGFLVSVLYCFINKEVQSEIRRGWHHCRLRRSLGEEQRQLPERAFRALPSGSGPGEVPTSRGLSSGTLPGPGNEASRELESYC

B1: Compound No. 0106 (peptide)
peptide: H[Aib]HGTFTSDYSK[αMeY]LEK([AEEA-AEEA-γGlu-C17 diacid])KAAQEFVEWLLAGGPSSGAPPPS-NH2
modifications: N-terminus assumed
SMILES: CC(C)C[C@H](NC(=O)[C@H](CC(C)C)NC(=O)[C@H](Cc1c[nH]c2ccccc12)NC(=O)[C@H](CCC(=O)O)NC(=O)[C@@H](NC(=O)[C@H](Cc1ccccc1)NC(=O)[C@H](CCC(=O)O)NC(=O)[C@H](CCC(N)=O)NC(=O)[C@H](C)NC(=O)[C@H](C)NC(=O)[C@H](CCCCN)NC(=O)[C@H](CCCCNC(=O)COCCOCCNC(=O)COCCOCCNC(=O)CC[C@H](NC(=O)CCCCCCCCCCCCCCCC(=O)O)C(=O)O)NC(=O)[C@H](CCC(=O)O)NC(=O)[C@H](CC(C)C)NC(=O)[C@](C)(Cc1ccc(O)cc1)NC(=O)[C@H](CCCCN)NC(=O)[C@H](CO)NC(=O)[C@H](Cc1ccc(O)cc1)NC(=O)[C@H](CC(=O)O)NC(=O)[C@H](CO)NC(=O)[C@@H](NC(=O)[C@H](Cc1ccccc1)NC(=O)[C@@H](NC(=O)CNC(=O)[C@H](Cc1c[nH]cn1)NC(=O)C(C)(C)NC(=O)[C@@H](N)Cc1c[nH]cn1)[C@@H](C)O)[C@@H](C)O)C(C)C)C(=O)N[C@@H](C)C(=O)NCC(=O)NCC(=O)N1CCC[C@H]1C(=O)N[C@@H](CO)C(=O)N[C@@H](CO)C(=O)NCC(=O)N[C@@H](C)C(=O)N1CCC[C@H]1C(=O)N1CCC[C@H]1C(=O)N1CCC[C@H]1C(=O)N[C@@H](CO)C(N)=O
B2: Compound No. 0110 (peptide)
peptide: H[Aib]HGTFTSDYSKYLEK([AEEA-AEEA-γGlu-C20 diacid])K[Aib]AQEFVEWLLAGGPSSGAPPPS-NH2
modifications: N-terminus assumed
SMILES: CC(C)C[C@H](NC(=O)[C@H](CC(C)C)NC(=O)[C@H](Cc1c[nH]c2ccccc12)NC(=O)[C@H](CCC(=O)O)NC(=O)[C@@H](NC(=O)[C@H](Cc1ccccc1)NC(=O)[C@H](CCC(=O)O)NC(=O)[C@H](CCC(N)=O)NC(=O)[C@H](C)NC(=O)C(C)(C)NC(=O)[C@H](CCCCN)NC(=O)[C@H](CCCCNC(=O)COCCOCCNC(=O)COCCOCCNC(=O)CC[C@H](NC(=O)CCCCCCCCCCCCCCCCCCC(=O)O)C(=O)O)NC(=O)[C@H](CCC(=O)O)NC(=O)[C@H](CC(C)C)NC(=O)[C@H](Cc1ccc(O)cc1)NC(=O)[C@H](CCCCN)NC(=O)[C@H](CO)NC(=O)[C@H](Cc1ccc(O)cc1)NC(=O)[C@H](CC(=O)O)NC(=O)[C@H](CO)NC(=O)[C@@H](NC(=O)[C@H](Cc1ccccc1)NC(=O)[C@@H](NC(=O)CNC(=O)[C@H](Cc1c[nH]cn1)NC(=O)C(C)(C)NC(=O)[C@@H](N)Cc1c[nH]cn1)[C@@H](C)O)[C@@H](C)O)C(C)C)C(=O)N[C@@H](C)C(=O)NCC(=O)NCC(=O)N1CCC[C@H]1C(=O)N[C@@H](CO)C(=O)N[C@@H](CO)C(=O)NCC(=O)N[C@@H](C)C(=O)N1CCC[C@H]1C(=O)N1CCC[C@H]1C(=O)N1CCC[C@H]1C(=O)N[C@@H](CO)C(N)=O
B3: Compound No. 0104 (peptide)
peptide: H[Aib]HGTFTSDYS[αMeK]YLEK([AEEA-AEEA-γGlu-C20 diacid])KAAQEFVEWLLAGGPSSGAPPPS-NH2
modifications: N-terminus assumed
SMILES: CC(C)C[C@H](NC(=O)[C@H](CC(C)C)NC(=O)[C@H](Cc1c[nH]c2ccccc12)NC(=O)[C@H](CCC(=O)O)NC(=O)[C@@H](NC(=O)[C@H](Cc1ccccc1)NC(=O)[C@H](CCC(=O)O)NC(=O)[C@H](CCC(N)=O)NC(=O)[C@H](C)NC(=O)[C@H](C)NC(=O)[C@H](CCCCN)NC(=O)[C@H](CCCCNC(=O)COCCOCCNC(=O)COCCOCCNC(=O)CC[C@H](NC(=O)CCCCCCCCCCCCCCCCCCC(=O)O)C(=O)O)NC(=O)[C@H](CCC(=O)O)NC(=O)[C@H](CC(C)C)NC(=O)[C@H](Cc1ccc(O)cc1)NC(=O)[C@](C)(CCCCN)NC(=O)[C@H](CO)NC(=O)[C@H](Cc1ccc(O)cc1)NC(=O)[C@H](CC(=O)O)NC(=O)[C@H](CO)NC(=O)[C@@H](NC(=O)[C@H](Cc1ccccc1)NC(=O)[C@@H](NC(=O)CNC(=O)[C@H](Cc1c[nH]cn1)NC(=O)C(C)(C)NC(=O)[C@@H](N)Cc1c[nH]cn1)[C@@H](C)O)[C@@H](C)O)C(C)C)C(=O)N[C@@H](C)C(=O)NCC(=O)NCC(=O)N1CCC[C@H]1C(=O)N[C@@H](CO)C(=O)N[C@@H](CO)C(=O)NCC(=O)N[C@@H](C)C(=O)N1CCC[C@H]1C(=O)N1CCC[C@H]1C(=O)N1CCC[C@H]1C(=O)N[C@@H](CO)C(N)=O
B4: Compound No. 0109 (peptide)
peptide: H[Aib]HGTFTSDYSKYLEK([AEEA-AEEA-γGlu-C20 diacid])[αMeK]AAQEFVEWLLAGGPSSGAPPPS-NH2
modifications: N-terminus assumed
SMILES: CC(C)C[C@H](NC(=O)[C@H](CC(C)C)NC(=O)[C@H](Cc1c[nH]c2ccccc12)NC(=O)[C@H](CCC(=O)O)NC(=O)[C@@H](NC(=O)[C@H](Cc1ccccc1)NC(=O)[C@H](CCC(=O)O)NC(=O)[C@H](CCC(N)=O)NC(=O)[C@H](C)NC(=O)[C@H](C)NC(=O)[C@](C)(CCCCN)NC(=O)[C@H](CCCCNC(=O)COCCOCCNC(=O)COCCOCCNC(=O)CC[C@H](NC(=O)CCCCCCCCCCCCCCCCCCC(=O)O)C(=O)O)NC(=O)[C@H](CCC(=O)O)NC(=O)[C@H](CC(C)C)NC(=O)[C@H](Cc1ccc(O)cc1)NC(=O)[C@H](CCCCN)NC(=O)[C@H](CO)NC(=O)[C@H](Cc1ccc(O)cc1)NC(=O)[C@H](CC(=O)O)NC(=O)[C@H](CO)NC(=O)[C@@H](NC(=O)[C@H](Cc1ccccc1)NC(=O)[C@@H](NC(=O)CNC(=O)[C@H](Cc1c[nH]cn1)NC(=O)C(C)(C)NC(=O)[C@@H](N)Cc1c[nH]cn1)[C@@H](C)O)[C@@H](C)O)C(C)C)C(=O)N[C@@H](C)C(=O)NCC(=O)NCC(=O)N1CCC[C@H]1C(=O)N[C@@H](CO)C(=O)N[C@@H](CO)C(=O)NCC(=O)N[C@@H](C)C(=O)N1CCC[C@H]1C(=O)N1CCC[C@H]1C(=O)N1CCC[C@H]1C(=O)N[C@@H](CO)C(N)=O
B5: Compound No. 0108 (peptide)
peptide: H[Aib]HGTFTSDYSKY[αMeL]EK([AEEA-AEEA-γGlu-C20 diacid])KAAQEFVEWLLAGGPSSGAPPPS-NH2
modifications: N-terminus assumed
SMILES: CC(C)C[C@H](NC(=O)[C@H](CC(C)C)NC(=O)[C@H](Cc1c[nH]c2ccccc12)NC(=O)[C@H](CCC(=O)O)NC(=O)[C@@H](NC(=O)[C@H](Cc1ccccc1)NC(=O)[C@H](CCC(=O)O)NC(=O)[C@H](CCC(N)=O)NC(=O)[C@H](C)NC(=O)[C@H](C)NC(=O)[C@H](CCCCN)NC(=O)[C@H](CCCCNC(=O)COCCOCCNC(=O)COCCOCCNC(=O)CC[C@H](NC(=O)CCCCCCCCCCCCCCCCCCC(=O)O)C(=O)O)NC(=O)[C@H](CCC(=O)O)NC(=O)[C@](C)(CC(C)C)NC(=O)[C@H](Cc1ccc(O)cc1)NC(=O)[C@H](CCCCN)NC(=O)[C@H](CO)NC(=O)[C@H](Cc1ccc(O)cc1)NC(=O)[C@H](CC(=O)O)NC(=O)[C@H](CO)NC(=O)[C@@H](NC(=O)[C@H](Cc1ccccc1)NC(=O)[C@@H](NC(=O)CNC(=O)[C@H](Cc1c[nH]cn1)NC(=O)C(C)(C)NC(=O)[C@@H](N)Cc1c[nH]cn1)[C@@H](C)O)[C@@H](C)O)C(C)C)C(=O)N[C@@H](C)C(=O)NCC(=O)NCC(=O)N1CCC[C@H]1C(=O)N[C@@H](CO)C(=O)N[C@@H](CO)C(=O)NCC(=O)N[C@@H](C)C(=O)N1CCC[C@H]1C(=O)N1CCC[C@H]1C(=O)N1CCC[C@H]1C(=O)N[C@@H](CO)C(N)=O

target: T2, human glucagon-like peptide-1 receptor (human, UniProt P43220 24-463); assay: cell-based or functional assay

Binder	Activity against human GLP-1R (EC50 nM) [nM]
B1	0.03
B2	0.016
B3	0.01
B4	0.011
B5	0.014

target: T3, human glucagon receptor (human, UniProt P47871 26-477); assay: cell-based or functional assay
T3 sequence (P47871 26-477): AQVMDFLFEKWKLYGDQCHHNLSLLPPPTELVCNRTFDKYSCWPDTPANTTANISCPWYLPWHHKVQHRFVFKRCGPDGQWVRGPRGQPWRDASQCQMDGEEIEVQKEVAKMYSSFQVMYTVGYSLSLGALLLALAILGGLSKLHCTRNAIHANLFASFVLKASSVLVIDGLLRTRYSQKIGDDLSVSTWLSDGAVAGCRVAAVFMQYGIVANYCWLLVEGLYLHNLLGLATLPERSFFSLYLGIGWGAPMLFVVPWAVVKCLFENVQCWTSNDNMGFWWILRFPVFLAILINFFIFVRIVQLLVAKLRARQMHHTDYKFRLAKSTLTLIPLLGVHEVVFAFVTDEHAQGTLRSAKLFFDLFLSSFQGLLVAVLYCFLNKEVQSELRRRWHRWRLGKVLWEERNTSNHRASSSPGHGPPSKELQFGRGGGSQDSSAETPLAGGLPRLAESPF

Binder	Activity against human GCGR (EC50 nM) [nM]
B1	0.095
B2	0.044
B3	0.037
B4	0.031
B5	0.315

target: T1, human glucose-dependent insulinotropic …; assay: cell-based or functional assay

Binder	Activity against human GIPR (EC50 nM) [nM]
B1	0.027
B2	0.043
B3	0.016
B4	0.027
B5	0.078

target: T2, human glucagon-like peptide-1 receptor; assay: cell-based or functional assay; remark: another data set of the same source

Binder	Activity against human GLP-1R (EC50 nM) [nM]
H[Aib]HGTFTSDYS[αMeK]ILEK([AEEA-AEEA-γGlu-C20 diacid])QAA[Iva]EFVEWLLAGGPSSGAPPPS-NH2 [Compound No. 0130]	0.048
Y[Aib]QGTFTSDYS[αMeK]ILEK([AEEA-AEEA-γGlu-C20 diacid])KAA[Iva]EFVEWLLAGGPSSGAPPPS-NH2 [Compound No. 0129]	0.159
Y[Aib]QGTFTSDYS[αMeK]LLEK([AEEA-AEEA-γGlu-C20 diacid])KAA[Iva]EFVEWLLAGGPSSGAPPPS-NH2 [Compound No. 0127]	0.132

target: T3, human glucagon receptor; assay: cell-based or functional assay; remark: another data set of the same source

Binder	Activity against human GCGR (EC50 nM) [nM]
H[Aib]HGTFTSDYS[αMeK]ILEK([AEEA-AEEA-γGlu-C20 diacid])QAA[Iva]EFVEWLLAGGPSSGAPPPS-NH2 [Compound No. 0130]	0.03
Y[Aib]QGTFTSDYS[αMeK]ILEK([AEEA-AEEA-γGlu-C20 diacid])KAA[Iva]EFVEWLLAGGPSSGAPPPS-NH2 [Compound No. 0129]	0.067
Y[Aib]QGTFTSDYS[αMeK]LLEK([AEEA-AEEA-γGlu-C20 diacid])KAA[Iva]EFVEWLLAGGPSSGAPPPS-NH2 [Compound No. 0127]	0.037

target: T1, human glucose-dependent insulinotropic …; assay: cell-based or functional assay; remark: another data set of the same source

Binder	Activity against human GIPR (EC50 nM) [nM]
H[Aib]HGTFTSDYS[αMeK]ILEK([AEEA-AEEA-γGlu-C20 diacid])QAA[Iva]EFVEWLLAGGPSSGAPPPS-NH2 [Compound No. 0130]	0.0005
Y[Aib]QGTFTSDYS[αMeK]ILEK([AEEA-AEEA-γGlu-C20 diacid])KAA[Iva]EFVEWLLAGGPSSGAPPPS-NH2 [Compound No. 0129]	0.002
Y[Aib]QGTFTSDYS[αMeK]LLEK([AEEA-AEEA-γGlu-C20 diacid])KAA[Iva]EFVEWLLAGGPSSGAPPPS-NH2 [Compound No. 0127]	0.0007
